[ ]: non-standard residue; d: D form. Hyp = O=C(O)[C@@H]1C[C@@H](O)CN1
B1: ASAL(mono-iodo)-Pro-Hyp-Gly-Ala-Gly-NH2 (Compound 32) (peptide)
peptide: {ASAL(mono-iodo)}-P[Hyp]GAG-NH2
B2: H-Gly-Ala-Gly-Hyp-Pro-Tyr-NH2 (AAP10) (peptide)
peptide: H-GAG[Hyp]PY-NH2
B3: H-Gly-Pro-Hyp-Gly-Ala-Gly-OH (AAP) (peptide)
peptide: H-GP[Hyp]GAG-OH
SMILES: C[C@H](NC(=O)CNC(=O)[C@@H]1C[C@@H](O)CN1C(=O)[C@@H]1CCCN1C(=O)CN)C(=O)NCC(=O)O

Legend:
[1] = molecular target: binding site for [125I]AAP10 on intact CHO cells (AAP receptor); assay: in situ displacement of [125I]AAP10 on intact CHO cells
[2] = molecular target: binding site for [125I]AAP10 in murine heart tissue preparations (AAP receptor) (mouse); assay: displacement of 0.8 nM [125I]AAP10, murine heart membranes
[3] = molecular target: binding site for [125I]AAP10 in murine heart tissue preparations (AAP receptor) (mouse); assay: displacement of 0.8 nM [125I]AAP10, murine heart filtrate
[4] = molecular target: binding site for [125I]AAP10 on intact CHO cells (AAP receptor); assay: cell-based or functional assay

Molecule | IC50 [1] | IC50 [2] | IC50 [3] | Inhibition of forskoline stimulated cAMP formation in CHO cells, EC50 [4]
Ac-D-Tyr(3,5-di-I)-D-Pro-D-Hyp-Gly-D-Ala-Gly-NH2 (Compound 24) (peptide) | 65 nM |  |  | 
Ac-D-Tyr-D-Pro-D-4Hyp-Gly-D-Ala-Gly-NH2 (Compound 2) (peptide) | 0.5 nM | 1.2 nM | 3.6 nM | 6.2 nM
B1 | 0.5 nM |  |  | 
B2 | 130 nM |  | 1.2 nM | 11 nM
B3 | 0.8 nM |  | 1.2 nM | 53 nM

— patent US20050113293A1
